{"source": "paper PMC10837153", "about": "“A structural vista of phosducin-like PhLP2A-chaperonin TRiC cooperation during the ATP-driven folding cycle” (Nature Communications, 2024)", "molecules": {"B1": {"name": "PhLP2A NTD-TXD (aa 1–211), CTD truncation (domain or fragment, human, UniProt Q9H2J4 1-211, looked up)", "chain": "MQDPNADTEWNDILRKKGILPPKESLKELEEEAEEEQRILQQSVVKTYEDMTLEELEDHEDEFNEEDERAIEMYRRRRLAEWKATKLKNKFGEVLEISGKDYVQEVTKAGEGLWVILHLYKQGIPLCALINQHLSGLARKFPDVKFIKAISTTCIPNYPDRNLPTIFVYLEGDIKAQFIGPLVFGGMNLTRDELEWKLSESGAIMTDLEEN", "notes": "PhLP2A, human, NTD and TXD, aa 1-211; also called N + TXT fragment; source: E. coli BL21 Rosetta2 pLysS, purified (nickel resin, SDX200); not shown: His6 (encoded by the 3' primer), C-terminal, kept"}, "B2": {"name": "human PhLP2A (phosducin-like protein 2A), full length (natural protein)", "chain": "MQDPNADTEWNDILRKKGILPPKESLKELEEEAEEEQRILQQSVVKTYEDMTLEELEDHEDEFNEEDERAIEMYRRRRLAEWKATKLKNKFGEVLEISGKDYVQEVTKAGEGLWVILHLYKQGIPLCALINQHLSGLARKFPDVKFIKAISTTCIPNYPDRNLPTIFVYLEGDIKAQFIGPLVFGGMNLTRDELEWKLSESGAIMTDLEENPKKPIEDVLLSSVRRSVLMKRDSDSEGD", "modifications": "AF-568 (Alexa568) label, site not stated, only in the native PAGE mobility shift and competition assays"}, "B3": {"name": "PhLP2A TXD-CTD (aa 85–239), NTD truncation (domain or fragment, human, UniProt Q9H2J4 85-239, looked up)", "chain": "TKLKNKFGEVLEISGKDYVQEVTKAGEGLWVILHLYKQGIPLCALINQHLSGLARKFPDVKFIKAISTTCIPNYPDRNLPTIFVYLEGDIKAQFIGPLVFGGMNLTRDELEWKLSESGAIMTDLEENPKKPIEDVLLSSVRRSVLMKRDSDSEGD", "notes": "PhLP2A, human, TXD and CTD, aa 85-239; the 5' primer translates to M-KLKNKFG; also called TXT-C term; source: E. coli BL21 Rosetta2 pLysS, purified (nickel resin, SDX200); not shown: His6 (encoded by the 3' primer), C-terminal, kept"}}, "key": {"[1]": {"target": "human TRiC (TCP-1 ring complex), his-tagged, CCT1 tagged with GFP (human) (UniProt P17987)", "assay": "cryo-EM structure; TRiC (2 mg/ml) sequentially incubated with PFD and PhLP2A in 1:2:~1, each 20 min at RT, with 1 mM AMP-PNP; 3D-focused classification"}, "[2]": {"target": "human TRiC (TCP-1 ring complex), his-tagged, CCT1 tagged with GFP (human) (UniProt P17987)", "assay": "cryo-EM structure; open TRiC (2 mg/ml) with each truncated PhLP2A mutant (TXD, NTD-TXD, TXD-CTD) in 1:2 molar ratio, 20 min at RT"}, "[3]": {"target": "T1, human TRiC subunit CCT3 (human, UniProt P49368 1-545)", "T1 construct": "TRiC subunit CCT3, human; Subunit of m2, seen only within the TRiC complex; source: High Five insect cells, purified as a subunit of TRiC", "T1 sequence": "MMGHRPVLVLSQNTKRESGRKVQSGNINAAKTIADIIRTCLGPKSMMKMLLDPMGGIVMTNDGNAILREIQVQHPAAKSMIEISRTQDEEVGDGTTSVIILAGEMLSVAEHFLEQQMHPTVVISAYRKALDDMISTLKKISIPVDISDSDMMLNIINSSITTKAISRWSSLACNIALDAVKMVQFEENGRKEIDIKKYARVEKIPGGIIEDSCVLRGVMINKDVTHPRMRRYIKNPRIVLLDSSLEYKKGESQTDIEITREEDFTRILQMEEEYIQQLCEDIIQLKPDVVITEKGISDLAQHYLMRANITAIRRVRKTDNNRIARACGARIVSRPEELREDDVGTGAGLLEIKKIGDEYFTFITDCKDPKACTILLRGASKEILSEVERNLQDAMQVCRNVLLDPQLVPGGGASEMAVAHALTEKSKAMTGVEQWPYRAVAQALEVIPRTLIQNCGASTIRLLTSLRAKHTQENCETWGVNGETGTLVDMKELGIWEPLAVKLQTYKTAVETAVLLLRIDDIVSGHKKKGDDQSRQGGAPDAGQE", "assay": "cryo-EM structure; open TRiC (2 mg/ml) with each truncated PhLP2A mutant (TXD, NTD-TXD, TXD-CTD) in 1:2 molar ratio, 20 min at RT", "details": "both partners purified"}, "[4]": {"target": "T2, human TRiC subunit CCT4 (human, UniProt P50991 1-539)", "T2 construct": "TRiC subunit CCT4, human; Subunit of m2, seen only within the TRiC complex; source: High Five insect cells, purified as a subunit of TRiC", "T2 sequence": "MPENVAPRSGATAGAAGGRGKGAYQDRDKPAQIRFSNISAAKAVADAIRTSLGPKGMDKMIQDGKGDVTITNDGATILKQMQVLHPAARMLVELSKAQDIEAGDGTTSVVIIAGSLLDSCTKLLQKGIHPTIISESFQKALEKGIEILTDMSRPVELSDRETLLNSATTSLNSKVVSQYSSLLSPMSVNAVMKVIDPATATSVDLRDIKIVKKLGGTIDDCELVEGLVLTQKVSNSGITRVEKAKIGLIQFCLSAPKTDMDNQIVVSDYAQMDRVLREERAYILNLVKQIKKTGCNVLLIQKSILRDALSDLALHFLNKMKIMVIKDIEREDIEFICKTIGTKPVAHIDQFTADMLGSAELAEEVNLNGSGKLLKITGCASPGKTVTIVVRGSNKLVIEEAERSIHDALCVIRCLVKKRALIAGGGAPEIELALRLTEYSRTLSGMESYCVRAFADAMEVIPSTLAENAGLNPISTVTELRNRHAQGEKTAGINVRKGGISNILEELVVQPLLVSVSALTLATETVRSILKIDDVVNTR", "assay": "cryo-EM structure; open TRiC (2 mg/ml) with each truncated PhLP2A mutant (TXD, NTD-TXD, TXD-CTD) in 1:2 molar ratio, 20 min at RT", "details": "both partners purified"}, "[5]": {"target": "human TRiC (TCP-1 ring complex), his-tagged, CCT1 tagged with GFP (human) (UniProt P17987)", "assay": "cryo-EM structure; closed TRiC: TRiC (0.8 mg/ml) with each truncated PhLP2A mutant (TXD, NTD-TXD, TXD-CTD) 1:2 for 20 min, then 1 mM ATP, 6 mM NaF, 10 mM MgCl2, 50 mM KCl, 1 h at RT"}, "[6]": {"target": "human TRiC (TCP-1 ring complex), his-tagged, CCT1 tagged with GFP (human) (UniProt P17987)", "assay": "native gel or EMSA; competition: unlabeled PhLP2A (0.01-10 μM) added to GFP-TRiC (0.25 μM) pre-incubated with AF-647 labeled PFD (1 μM); Native PAGE 4-16%, in-gel fluorescence"}, "[7]": {"target": "human TRiC (TCP-1 ring complex), his-tagged, CCT1 tagged with GFP (human) (UniProt P17987)", "assay": "native gel or EMSA; native PAGE mobility shift; 0.25 μM open TRiC, PhLP2A 0.01-10 μM, ATPase buffer (30 mM Tris pH 7.4, 120 mM KCl, 5 mM MgCl2, 1 mM DTT), about 30 min at room temperature; apparent Kd; three repetitions"}, "[8]": {"target": "human TRiC (TCP-1 ring complex), his-tagged, CCT1 tagged with GFP (human) (UniProt P17987)", "assay": "cryo-EM structure; closed TRiC: TRiC (0.8 mg/ml) with PhLP2A 1:4 for 30 min, then 1 mM ATP, 1 mM Al3(NO3)3, 6 mM NaF, 10 mM MgCl2, 50 mM KCl, 1 h at RT"}}}
{"molecule": "human Prefoldin (from UniProt O15212 1-129) (complex)", "values": [{"measurement": "percent of TRiC particles with PFD bound (3D classification)", "setting": "[1]", "result": 25, "unit": "%"}]}
{"molecule": "B1", "values": [{"measurement": "percent of TRiC particles with NTD-TXD density in the chamber", "setting": "[2]", "result": 19.8, "unit": "%"}, {"measurement": "binding result", "setting": "[3]", "result": "binds"}, {"measurement": "binding result", "setting": "[4]", "result": "binds"}, {"measurement": "percent of closed TRiC particles with NTD-TXD density in the chamber", "setting": "[5]", "result": 8.25, "unit": "%"}]}
{"molecule": "B2", "values": [{"measurement": "percent of TRiC-bound PFD displaced", "setting": "[6]", "result": "< 70", "unit": "%"}, {"measurement": "Kd", "setting": "[7]", "result": 170, "unit": "nM"}, {"measurement": "percent of closed TRiC particles with PhLP2A in both chambers", "setting": "[8]", "result": 9.5, "unit": "%"}, {"measurement": "percent of closed TRiC particles with PhLP2A in one chamber", "setting": "[8]", "result": 14, "unit": "%"}, {"measurement": "percent of TRiC particles with PhLP2A bound (3D classification)", "setting": "[1]", "result": 22.9, "unit": "%"}]}
{"molecule": "B3", "values": [{"measurement": "binding result", "setting": "[3]", "result": "binds"}]}
